The values that follow come from patent US20230181701A1.

The target in the test is CD20 on Daudi cells (UniProt P11836). The test can be described thus: cell-based or functional assay.
Chain of UniProt P11836 (P11836 whole entry): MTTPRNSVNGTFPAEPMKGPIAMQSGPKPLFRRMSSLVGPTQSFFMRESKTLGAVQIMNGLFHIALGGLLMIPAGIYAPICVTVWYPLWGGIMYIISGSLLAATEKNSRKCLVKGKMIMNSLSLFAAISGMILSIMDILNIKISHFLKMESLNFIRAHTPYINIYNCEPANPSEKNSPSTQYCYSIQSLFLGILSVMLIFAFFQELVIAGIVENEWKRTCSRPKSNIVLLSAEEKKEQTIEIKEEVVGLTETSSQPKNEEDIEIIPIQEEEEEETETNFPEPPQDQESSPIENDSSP

Take “Anti-CD20 IgG (Rituximab, N7022, 10 mg/mL, Mabthera) (antibody)”: the CDC of Daudi cells with baby rabbit serum (CCK8) (% of cells dead) came to 70.
